Assay: yeast display, Sf9 membrane polyspecificity reagent, FACS + sequencing; frameworks hold sequencing errors
In short: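 Galactose-induced (36–48 hours) yeast carrying a synthetic nanobody display library were exposed to 10% biotinylated, detergent-solubilized Sf9 membrane reagent at 4 °C for 1 hour. FACS followed streptavidin microbead enrichment, using low and high (top ~1%) gates for expression (anti-HA) and reagent binding (streptavidin). Colony PCR, MiSeq 2 × 250 sequencing and CDR-length filtering followed. Labels for polyreactivity reflect the gate of origin.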

| Sequence | polyreactivity (PSR sort gate) |
| --- | --- |
| QVQLVESGGGLVQAGGSLRLSCAASGSIFYANAMGWYRQAPGKERELVAAISRSGGRTYYADSVKGRFTISRDNAKNTVYLQMNSLKPEDTAVYYCNAVYVSYTYQQTRPRYYYWGQGTQVTVSS | high polyreactivity |
| QVQLVESGGGLVQAGGSLRLSCAASGSIFYAYALGWYRQAPGKERELVAVISRGGITNYADSVKGRFTISRDNAKNTVYLQMNSLKPEDNAVYYCAAATSACGYLRRYGYWGQGTQVTVSS | low polyreactivity |
| QVQLVESGGGLVQAGGSLRLSCAASGSIFYAYAMGWSRQAPGKERELVATISSVGSTYYADSVKGRFTISRDNAKNTVYLQMNSLKPEDTAVYYCAKPRIVVYKTGYDYWGQGTQVTVSS | low polyreactivity |
| QVQLVESGGGLVQAGGSLRLSCAASGSIFYAYAMGWYRQAPGKEREFVAVISRGGITNYADSVKGRFTISRDNAKNTVYLQMNSLKPEDTAVYYCAAATSAWGYLRRYGYWGQGTQVTVSS | low polyreactivity |
| QVQLVESGGGLVQAGGSLRLSCAASGSIFYAYAMGWYRQAPGKERELVAAISSDGSTYYADSVKGRFTISRDNAKNTVYLQMTSLKPEDTAVYYCAASVLAPNAVSGSDYWGQGTQVTVSS | low polyreactivity |
| QVQLVESGGGLVQAGGSLRLSCAASGSIFYAYVMGWYRQAPGKERELVAAISSGGSTYYADSVKGRFTISRDNAKNTVYLQMNSLKPEDTAVYYCAVGRPSGWSYYTGGDYWGQGTQVTVSS | high polyreactivity |
| QVQLVESGGGLVQAGGSLRLSCAASGSIFYAYVMGWYRQAPGKERELVAAISSRGGSTHYADSVKGRFTISRDNAKNTVYLQMNSLKPEDTAVYYCAAARGKDGYWGQGTQVTVSS | high polyreactivity |
| QVQLVESGGGLVQAGGSLRLSCAASGSIFYDNAMGWYRQAPGKEREFVAAISTSGGSTYYADSVKGRFTISRDTAKNTVYLQMNSLKPEDTAVYYCAAEWPDLGYWWWYDVGYGYWGQGTQVTVSS | high polyreactivity |
| QVQLVESGGGLVQAGGSLRLSCAASGSIFYDNAMGWYRQAPGKERELVAAIDDSDRTYYADSEKGRFTISRDNAKNTVYLQMNSLKPEDTAVYYCARDRWKWHYGYDYWGQGTQVTVSS | low polyreactivity |
| QVQLVESGGGLVQAGGSLRLSCAASGSIFYDNAMGWYRQAPGKERELVAAITSTGGSTYYADSVKGRFTISRDNAKNTVYLQMNSLKPEDTAVYYCNTPTYLYWGFYTYDYWGQGTQVTVSS | low polyreactivity |
| QVQLVESGGGLVQAGGSLRLSCAASGSIFYDNGMGWYRQAPGKERELVAAISRGGTTNYADSVKGRFTISRDKAKNTVYLQMNSLKPEDTAVYYCNAETRFTYWGSWYDYWGQGTQVTVSS | low polyreactivity |
| QVQLVESGGGLVQAGGSLRLSCAASGSIFYDYAMGWYRQATRKERELVPAITNDDSSTYYADSVKGRFTISRDNAKNTVYLQMNSLKPEDTAVYYCRFKYAVAHHFWVYRYDYWGQGTQVTVSS | low polyreactivity |
| QVQLVESGGGLVQAGGSLRLSCAASGSIFYEYAMGWYRQAPGKEREFVASISWSGGITYYADSVKGRFTISRDNAKNTVYLQMNSLKPEDTAVYYCAADFSWYLYDYDYWGQGTQVTVSA | low polyreactivity |
| QVQLVESGGGLVQAGGSLRLSCAASGSIFYEYTMGWYRQAPGKERELVAVITSGGTTNYADSVKGRFTISRDNAKNTVYLQMNSLKPEYTAVYYCAAESKNKYDYWGQGTQVTVSS | high polyreactivity |
| QVQLVESGGGLVQAGGSLRLSCAASGSIFYFNAMGWYRQAAGKEWELVATISRRGGSTYYADSVKGRFTISRDNAKKTVYLQMNSLKPEDTAVYYCAADYYTLYPVYIKRYGYWGQGTQVTVSS | high polyreactivity |
| QVQLVESGGGLVQAGGSLRLSCAASGSIFYFNTMAWYRQAPGKERELVAVISRRGGSTYYADSVKRRFTISRDNAKNTVYLQMNSLKPEDTAVYYCNAEVFDLWRSFLSPYEYWGQGTQVTVSS | low polyreactivity |
| QVQLVESGGGLVQAGGSLRLSCAASGSIFYFNVMGWYRQAPGKERELVATITWRDASTNYADSVKARFTISRDNAKNTVYLQMNSLKPEDTAVYYCNADSDWGYFDYDYYYWGQGTEVTVSS | low polyreactivity |
| QVQLVESGGGLVQAGGSLRLSCAASGSIFYFYAMRWYRQAPGKERELVAAITDGGASTRYADSVKGRFTISRDYAKNTVYLHMNSLKPEDTAVYYCNARKYWKYGSYQYYWGQGTQVTVSW | high polyreactivity |
| QVQLVESGGGLVQAGGSLRLSCAASGSIFYGNAMGWYRQAPGKERELVAAIDGTGASTYYADSVKGRFTISRDNAKNTVYLKMNSLKPEDTAVYYCNKALTSKDYPVRTVERDYWGQGTQVTVSS | low polyreactivity |
| QVQLVESGGGLVQAGGSLRLSCAASGSIFYGNAMGWYRQAPGKERELVAAISARGGSTNYADSVKGRFTISRDNAKNTVYLQMNSLKPEDTAVYYCAADTPVWSGYWYDYWGQGTQVTVSS | low polyreactivity |

| Sequence | polyreactivity (PSR sort gate) |
| --- | --- |
| QVQLVESGGGLVQAGGSLRLSCAASGSIFYGNAMGWYRQAPGKERELVAAISKRGGSTYYADSVKGRFTISRDNAKNTVYLQMNSLKPEDTAVYYCAKATAGHTEYYSWGQGTQVTVSS | high polyreactivity |
| QVQLVESGGGLVQAGGSLRLSCAASGSIFYGNAMGWYRQAPGKERELVAAISNVGRTDYADSVKGRFTISRDNAKNTVYLQMNSLKPEDTAVYYCAAGVYSGYNRYFAPRSWFGYYYWGQGTQVTVSS | low polyreactivity |
| QVQLVESGGGLVQAGGSLRLSCAASGSIFYGNTMGWYRQAPGKERELVAAISSGGSTKYADSVKGRFTISRDNAKNTVYLQMNSLKPEDTAVYYCAKVAPRSSSSQEYYYWGQGTQVTVSS | low polyreactivity |
| QVQLVESGGGLVQAGGSLRLSCAASGSIFYGYAMGWYRQAPGKERELVAAISFSGGSTHYADSVKGRFTISRDNAKNTVYLQMNSLKPEDTAVYYCATDSGTPGDDEYWGQGTQVTVSS | low polyreactivity |
| QVQLVESGGGLVQAGGSLRLSCAASGSIFYGYAMGWYRQAPGKERELVAAISGNGGSTYYADSVKGRFTISRDNAKNTVYLQMNRLKPEDTAVYYCAVEVYHYGFEYDYWGLGTQVTVSS | high polyreactivity |
| QVQLVESGGGLVQAGGSLRLSCAASGSIFYGYAMGWYRQAPGKERELVAGISNGGSTNYADSVKGRFTISRDNAKNTVYLQMNSLKPEDTAVYYCNRDGTYVYHGGEYCGQGTQVTVSS | low polyreactivity |
| QVQLVESGGGLVQAGGSLRLSCAASGSIFYGYAMGWYRQAPGKERELVAVITDGGGSTYYADSVKGRFTISRDNAKNTVYLQMNSLKPEDTAVYYCAADSWGPYYYSSYSYDYWGQGTQVTVSS | low polyreactivity |
| QVQLVESGGGLVQAGGSLRLSCAASGSIFYHNAMGWYRQAPGKERELVAAITWSGSTTYYADSVKGRFTISRDNAKNTVYLQMNSLKPEDTAVYYCNAGNRHGHYDYWGQGTQVTVSS | low polyreactivity |
| QVQLVESGGGLVQAGGSLRLSCAASGSIFYHYAMGWYRQAPGKERELVAAISWRGASTYYADSVKGRFTISRDNAKNTVYLQMNSLKPEDTAVYYCARLSSSHPLYRDEYWGQGTQVTVSS | high polyreactivity |
| QVQLVESGGGLVQAGGSLRLSCAASGSIFYHYVMGWYRQAPGKERELVAAISSSGRTYYADSVKGRFTISRDNAKNTVYLQMNSLKPEDTAVYYCAADVHFGVGMDYWGQGTQVTVSS | low polyreactivity |
| QVQLVESGGGLVQAGGSLRLSCAASGSIFYIYAMGWYRKAPGKERELVASIDSGDSTNYADSVKGRFTISRDNAKNTVYLQMNSLKPEDTAVYYCNADTFSELTYYLYIGMDYWGQGTQVTVSS | low polyreactivity |
| QVQLVESGGGLVQAGGSLRLSCAASGSIFYIYAMGWYRQAPGKERELVAAITWRGGRTYYADSVKGRFTISRDNAKNTVYLQMNSLKPEDTAVYYCAALYAKYYYRYDYWGQGTQVTVSS | high polyreactivity |
| QVQLVESGGGLVQAGGSLRLSCAASGSIFYKYGMGWYRQAPGKVRVLVAAIRASGDSTYYADSVKGRFTISRDNAKNTVYLQMNSQKPEDTAVYYCAARPNQSYYGLYYYWGQGTQVTVSS | low polyreactivity |
| QVQLVESGGGLVQAGGSLRLSCAASGSIFYKYTMGWYRQAPGKERELVAAISRSGGSTYYADSVKGRFTISRDNAKNTVYLQMNSLKPEDTAVYYCATTRRVPGEYWGQGTQVTVSS | high polyreactivity |
| QVQLVESGGGLVQAGGSLRLSCAASGSIFYLNAMGWYRQAPGKERELVAAINRGGSTSYADSVKGRFTISRDNAKNTVYLQMNSLKPEDTAVYYCAADHGGVQYSVRYDYWGQGTQVTVSS | low polyreactivity |
| QVQLVESGGGLVQAGGSLRLSCAASGSIFYLYAMGWYRQAPGKERELVAAISSSGGRTYYADSVKGRFTISRDNAKNTVYLQMNSLKPEDTAVYYCAARYWAKYSYGYWGQGTQVTVSS | high polyreactivity |
| QVQLVESGGGLVQAGGSLRLSCAASGSIFYLYAMGWYRQAPGKERELVAAITSGDSTTYADSVKGRFTISRDNAKNTVYLQMNSLKPEDTAVYYCAADWPGLVGYHNSAENDYWGQGTQVTVSS | low polyreactivity |
| QVQLVESGGGLVQAGGSLRLSCAASGSIFYLYAMGWYRQAPGKERELVATITRGGSTNYADSVKGRFRISRDNAKNTDYVQMNSLKPEDTARYYCNARFFKPPYSKWSSRFDYWGQGTQVTVSS | high polyreactivity |
| QVQLVESGGGLVQAGGSLRLSCAASGSIFYPYAMGCYRQAPGKERELVAAITSSGGSTYYADSVKGRFTISRDNAKNTVYLQMNSLKPEDTAVYYCNAKGPYTAIYYKPFLGSTRFEYWGQGTQVTVSS | high polyreactivity |
| QVQLVESGGGLVQAGGSLRLSCAASGSIFYPYAMGWYRQAPGKERELVAAISYSGGSTYYADSVKGSFTISRDNAKNTVYLQMNSMKPEDTAVYYCNRRYWRRPYYKYDYWGQGTQVTVSS | high polyreactivity |

Source: the nanobody polyreactivity screen of Harvey et al. (2022)
